{"source": "patent US12006503B2", "about": "“Fusion proteins and methods thereof” (The Trustees of Columbia University in the City of New York, priority 2012, dated 2024)", "key": {"Balb 3T3": {"tested_on": "Balb 3T3", "assay": "Soft agar colony assay, Balb 3T3 cells", "assay_type": "cell-based", "conditions": "Balb 3T3 cells transduced with the construct"}, "[1]": {"tested_on": "Ink4A;Arf-/- astrocytes in immunodeficient mice", "assay": "Subcutaneous tumor xenograft formation by lentivirus-transduced Ink4A;Arf-/- astrocytes", "assay_type": "in vivo, mouse", "conditions": "Ink4Arf-/- astrocytes expressing the construct", "from_the_text": "FIG. 3B are photomicrographs showing of immunofluoresence staining of tumors from mice injected with Ink4A; Arf−/− astrocytes expressing FGFR3-TACC3 showing positivity for glioma-specific (Nestin, Oig2 and GFAP) and proliferation markers (Ki67 and pHH3). Sub-cutaneous tumors were generated by Ink4A; Arf−/− astrocytes expressing FGFR-TACC fusions.\nSubcutaneous xenografts and drug treatment. […] For experiments with FGFR inhibitors, mice carrying ˜200-300 mm 3 subcutaneous tumors derived from Ink4A; Arf−/− astrocytes were randomized to receive 50 mg/kg PD173074 in 0.05 M lactate buffer (pH 5) or an equal volume of lactate buffer by oral gavage. Treatment was administered for three cycles consisting of four consecutive days followed by two days of rest. […] Data are expressed as mean±SE."}, "Rat1 [2]": {"tested_on": "Rat1", "assay": "Soft agar colony assay, Rat1 cells", "assay_type": "cell-based, rat", "conditions": "Rat1 cells transduced with the construct", "from_the_text": "FGFR1-TACC1 and FGFR3-TACC3 induce anchorage-independent growth in Rat1A fibroblasts. The number of soft agar colonies was scored from triplicate samples 14 days after plating. Representative microphotographs are shown."}, "Rat1 [3]": {"tested_on": "Rat1", "assay": "Subcutaneous tumor xenografts formed by transduced Rat1 cells", "assay_type": "in vivo, rat", "conditions": "Rat1 cells expressing the construct"}, "Rat1A cells": {"tested_on": "Rat1A cells", "assay": "Karyotype analysis (chromosome counts, aneuploidy) of Rat1A cells", "assay_type": "cell-based, rat", "conditions": "Rat1A cells, 100 cells counted", "description": "Distribution of chromosome counts of cells arrested in mitosis and analyzed for karyotypes using DAPI. Chromosomes were counted in 100 metaphase cells for each condition to determine the ploidy and the diversity of chromosome counts within the cell population. FGFR3-TACC3 fusion induces aneuploidy.\nThe upper panel is a karyotype analysis of Rat1A cells transduced with control or FGFR3-TACC3 lentivirus and treated with vehicle (DMSO) or PD173470 (100 nM) for five days.\nKaryotype analysis. Cultured cells were colcemid (20 ng/ml) treated for 90 minutes before harvesting for karyotopic analysis as detailed in Extended Experimental procedures. At least one hundred cells in metaphase were examined for chromosome count. PMSCS was scored in cells where a majority of the sister chromosomes were no longer associated. Two-tailed unpaired t-tests with Welch's correction were performed for comparison of means analysis.\nKaryotypic Analysis. The colcemid treated cells were trypsinized, centrifuged for 7 minutes at 200×g, and the cell pellet re-suspended in warmed hypotonic solution and incubated at 37° C. for 13 minutes. The swollen cells were then centrifuged and the pellet re-suspended in 8 ml of Carnoy's fixative (3:1 methanol:glacial acetic acid). The cell suspension was centrifuged and washed twice in Carnoy's fixative. After the last centrifugation, the cells were resuspended in 0.5 to 1 ml of freshly prepared fixative to produce an opalescent cell suspension. Drops of the final cell suspension were placed on clean slides and air-dried. Slides were stained with DAPI and metaphases were analyzed under a fluorescent microscope."}}}
{"molecule": "FGFR3: wild type FGFR3 expressed by lentivirus (protein, listed as Homo sapiens) MGAPACALALCVAVAIVAGASSESLGTEQRVVGRAAEVPGPEPGQQEQLVFGSGDAVELSCPPPGGGPMGPTVWVKDGTGLVPSERVLVGPQRLQVLNASHEDSGAYSCRQRLTQRVLCHFSVRVTDAPSSGDDEDGEDEAEDTGVDTGAPYWTRPERMDKKLLAVPAANTVRFRCPAAGNPTPSISWLKNGREFRGEHRIGGIKLRHQQWSLVMESVVPSDRGNYTCVVENKFGSIRQTYTLDVLERSPHRPILQAGLPANQTAVLGSDVEFHCKVYSDAQPHIQWLKHVEVNGSKVGPDGTPYVTVLKTAGANTTDKELEVLSLHNVTFEDAGEYTCLAGNSIGFSHHSAWLVVLPAEEELVEADEAGSVYAGILSYGVGFFLFILVVAAVTLCRLRSPPKKGLGSPTVHKISRFPLKRQVSLESNASMSSNTPLVRIARLSSGEGPTLANVSELELPADPKWELSRARLTLGKPLGEGCFGQVVMAEAIGIDKDRAAKPVTVAVKMLKDDATDKDLSDLVSEMEMMKMIGKHKNIINLLGACTQGGPLYVLVEYAAKGNLREFLRARRPPGLDYSFDTCKPPEEQLTFKDLVSCAYQVARGMEYLASQKCIHRDLAARNVLVTEDNVMKIADFGLARDVHNLDYYKKTTNGRLPVKWMAPEALFDRVYTHQSDVWSFGVLLWEIFTLGGSPYPGIPVEELFKLLKEGHRMDKPANCTHDLYMIMRECWHAAPSQRPTFKQLVEDLDRVLTVTSTDEYLDLSAPFEQYSPGGQDTPSSSSSGDDSVFAHDLLPPAPPSSGGSRT", "values": [{"measurement": "soft agar colonies", "setting": "Balb 3T3", "value": 0}, {"measurement": "Subcutaneous tumor xenografts (tumors formed/injections)", "setting": "[1]", "value": "0/5"}, {"measurement": "soft agar colonies", "setting": "Rat1 [2]", "value": 0}, {"measurement": "Subcutaneous tumor xenografts (tumors formed/injections)", "setting": "Rat1 [3]", "value": "0/5"}, {"measurement": "Average variation from mean number", "setting": "Rat1A cells", "value": 1.3}, {"measurement": "Mean number (chromosomal number)", "setting": "Rat1A cells", "value": 42.1}, {"measurement": "Percent aneuploidy", "setting": "Rat1A cells", "value": 33, "unit": "%"}, {"measurement": "Range (chromosomal number)", "setting": "Rat1A cells", "value": "35-44"}]}
